Target: T1, rat VEGF A subunit, 164 amino acid mature (secreted) form of the 190 amino acid translation product (rat, UniProt P16612 27-214)
T1 construct: also called VEGF AB, A subunit; A chain
T1 sequence: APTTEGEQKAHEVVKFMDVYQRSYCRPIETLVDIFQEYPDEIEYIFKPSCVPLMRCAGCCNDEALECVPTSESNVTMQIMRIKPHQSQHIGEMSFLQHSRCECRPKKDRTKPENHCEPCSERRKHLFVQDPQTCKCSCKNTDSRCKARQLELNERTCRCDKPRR
Test: purified native VEGF AB reduced and carboxymethylated; subunits separated by C4 reverse phase HPLC and N-terminally sequenced; single 58 kDa band non-reduced against about 23 kDa reduced on SDS-PAGE

B1: rat VEGF B subunit, 135 amino acid mature form derived from the 158 amino acid full length form (ligand)
chain: ALSAGNNSTEMEVVPFNEVWGRSYCRPMEKLVYIADEHPNEVSHIFSPSCVLLSRCSGCCGDEGLHCVALKTANITMQILKIPPNRDPHSYVEMTFSQDVLCECRPILETTKAERRKTKGKRKQSKTPQTEEPHL
notes: Native subunit purified from GS-9L conditioned medium as part of VEGF AB; also called VEGF AB, B subunit; B chain
B1: binds.

Source: patent US6569434 (MERCK, dated 2003)
